According to patent US20230408517A1 (BIO TECHNE, published 2023):
Read-outs that look alike come from different tables or passages of the source.

Key:
[1] = target: T1, recombinant SARS-CoV-2 spike S1 RBD (R319-F541), C-terminal 6-His (SARS-CoV-2, UniProt P0DTC2 319-541); test: flow cytometry, blocking of binding to hACE-2 cells
[2] = target: T2, UK variant RBD (R319-F541 with N501Y), C-terminal 6-His (SARS-CoV-2, UniProt P0DTC2 319-541); test: lateral flow NC50, RBD-AuNP vs immobilised ACE2
[3] = target: T478K RBD (R319-F541 with T478K) (SARS-CoV-2, UniProt P0DTC2 319-541); test: lateral flow NC50, RBD-AuNP vs immobilised ACE2
[4] = target: K417E RBD (R319-F541 with K417E) (SARS-CoV-2, UniProt P0DTC2 319-541); test: lateral flow NC50, RBD-AuNP vs immobilised ACE2
[5] = target: T1, recombinant SARS-CoV-2 spike S1 RBD …; test: lateral flow NC50, RBD-AuNP vs immobilised ACE2
[6] = target: T3, BR P.1 variant RBD (R319-F541 with K417T, E484K, N501Y), C-terminal 6-His (SARS-CoV-2, UniProt P0DTC2 319-541); test: flow cytometry, blocking of binding to hACE-2 cells
[7] = target: rSARS2-B.1.1.7 S aa16-1211 4x aa mut., C-His (SARS-CoV-2, UniProt P0DTC2 16-1211); test: as above
[8] = target: rSARS2-B.1.1.7 S aa16-1211 2x aa mut., C-His (SARS-CoV-2, UniProt P0DTC2 16-1211); test: as above
[9] = target: T4, IN v2 variant RBD (R319-F541 with L452R, T478K) (SARS-CoV-2, UniProt P0DTC2 319-541); test: as above
[10] = target: rSARS2-B.1.617.2 S aa16-1211 10+4x aa mut., C-His (SARS-CoV-2, UniProt P0DTC2 16-1211); test: as above
[11] = target: rSARS2 RBD aa319-541, N439K, C-His (SARS-CoV-2, UniProt P0DTC2 319-541); test: as above
[12] = target: T3, BR P.1 variant RBD (R319-F541 with …); test: lateral flow NC50, RBD-AuNP vs immobilised ACE2
[13] = target: T5, SA variant RBD (R319-F541 with K417N, E484K, N501Y), C-terminal 6-His (SARS-CoV-2, UniProt P0DTC2 319-541); test: lateral flow NC50, RBD-AuNP vs immobilised ACE2
[14] = target: T3, BR P.1 variant RBD (R319-F541 with …); test: sandwich dipstick, capture Ab7, detector Ab4-AuNP
[15] = target: T2, UK variant RBD (R319-F541 with N501Y), …; test: sandwich dipstick, capture Ab7, detector Ab4-AuNP
[16] = target: T5, SA variant RBD (R319-F541 with K417N, …); test: sandwich dipstick, capture Ab7, detector Ab4-AuNP
[17] = target: T1, recombinant SARS-CoV-2 spike S1 RBD …; test: sandwich dipstick, capture Ab7, detector Ab4-AuNP
[18] = target: T3, BR P.1 variant RBD (R319-F541 with …); test: sandwich dipstick, detector Ab5-AuNP
[19] = target: T2, UK variant RBD (R319-F541 with N501Y), …; test: sandwich dipstick, detector Ab5-AuNP
[20] = target: T5, SA variant RBD (R319-F541 with K417N, …); test: sandwich dipstick, detector Ab5-AuNP
[21] = target: T1, recombinant SARS-CoV-2 spike S1 RBD …; test: sandwich dipstick, detector Ab5-AuNP
[22] = target: T1, recombinant SARS-CoV-2 spike S1 RBD …; test: flow cytometry, blocking of binding to hACE-2 cells; remark: listed apart in the source
[23] = target: BR P.2 variant RBD (R319-F541 with E484K) (SARS-CoV-2, UniProt P0DTC2 319-541); test: dipstick, adsorbed RBD spots, Ab 10 µg/mL, GAM-AuNP
[24] = target: L452R RBD (R319-F541 with L452R) (SARS-CoV-2, UniProt P0DTC2 319-541); test: as above
[25] = target: IN v1 variant RBD (R319-F541 with L452R, E484Q) (SARS-CoV-2, UniProt P0DTC2 319-541); test: as above
[26] = target: T4, IN v2 variant RBD (R319-F541 with …); test: as above
[27] = target: T2, UK variant RBD (R319-F541 with N501Y), …; test: lateral flow NC50, RBD-AuNP vs immobilised ACE2; remark: listed apart in the source
[28] = target: T1, recombinant SARS-CoV-2 spike S1 RBD …; test: lateral flow NC50, RBD-AuNP vs immobilised ACE2; remark: listed apart in the source

B1: 1035240 (antibody, V domains shown)
VH: QVQLQQSGAELARPGASVKMSCKASGYTFTTYTMHWVKQRPGQGLEWIGYINPSSGYTNYNQKFKDKATLTADTSSSTAYMQLSSLTSEDSAVYYCARRNPLYAMDYWGQGTSVTVSS
VL: DIKMTQSPSSMYASLGERVTITCKASQDINSYLNWFQQKPGKSPKTLIYRANRLVDGVPSRFSGSGSGQDYSLTISSLEYEDMGIYYCLQYDEFPYTFGGGTKLEIK
For B1, the percent blocking [1] was 99.1%, the IC50 [2] was 0.86 µg/mL and the IC50 [3] was 0.61 µg/mL. It also gave an IC50 [4] of 0.33 µg/mL, an IC50 [5] of 0.34 µg/mL and a percent blocking [6] of 0%. The percent blocking [7] was 78.6%, the percent blocking [8] was 91.2% and the percent blocking [9] was 0.7%. It also gave a percent blocking [10] of 0%, a percent blocking [11] of 49% and an IC50 [12] of over 45 µg/mL. For the same binder, the IC50 [13] was over 45 µg/mL, the detection sensitivity [14] was 0.1 µg/mL and the detection sensitivity [15] was 0.01 µg/mL. It also gave a detection sensitivity [16] of 0.1 µg/mL, a detection sensitivity [17] of 0.01 µg/mL and a detection sensitivity [18] of 0.001 µg/mL. The detection sensitivity [19] was 0.001 µg/mL, the detection sensitivity [20] was 0.001 µg/mL and the detection sensitivity [21] was 0.001 µg/mL. For the same binder, the percent blocking [22] was 99.1%, the binding result [23] was “no binding (tested: 10 µg/mL)” and the binding result [24] was “no binding (tested: 10 µg/mL)”. The binding result [25] was “no binding (tested: 10 µg/mL)”, the binding result [26] was “no binding (tested: 10 µg/mL)” and the IC50 [27] was 0.86 µg/mL. The IC50 [28] was 0.34 µg/mL.
